The source of these data is publication PMC9020777.

Assay in all cases: FRET or BRET
What all share (settings): remark: other sources report otherwise
(In BRET a luciferase serves as donor, and the signal depends on an acceptor being close.)

The target of assay [1] is mCerulean3-BCL-2 (^CBCL-2) (human), P10415.
In assay [2] the target is mCerulean3-BCL-2 (human), P10415.
Assay [3] addresses mCerulean3-MCL-1 (human), Q07820.
In assay [4] the target is mCerulean3-BCL-XL (human), Q07817.
Chain of mCerulean3-BCL-XL (human), Q07817 (Q07817 whole entry): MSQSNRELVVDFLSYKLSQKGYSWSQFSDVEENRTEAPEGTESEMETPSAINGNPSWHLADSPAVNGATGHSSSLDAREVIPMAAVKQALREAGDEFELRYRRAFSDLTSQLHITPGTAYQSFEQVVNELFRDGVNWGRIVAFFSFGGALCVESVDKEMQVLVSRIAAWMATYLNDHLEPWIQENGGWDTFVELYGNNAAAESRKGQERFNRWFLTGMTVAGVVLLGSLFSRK

Chain of mCerulean3-BCL-2 (human), P10415 (P10415 whole entry): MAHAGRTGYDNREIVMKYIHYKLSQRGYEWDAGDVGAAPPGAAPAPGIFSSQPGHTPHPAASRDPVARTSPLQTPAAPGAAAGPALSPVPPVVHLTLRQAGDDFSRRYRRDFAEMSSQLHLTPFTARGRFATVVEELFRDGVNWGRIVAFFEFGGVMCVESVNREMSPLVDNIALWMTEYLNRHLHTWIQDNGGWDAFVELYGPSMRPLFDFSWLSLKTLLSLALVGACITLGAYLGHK
Chain of mCerulean3-MCL-1 (human), Q07820 (Q07820 whole entry): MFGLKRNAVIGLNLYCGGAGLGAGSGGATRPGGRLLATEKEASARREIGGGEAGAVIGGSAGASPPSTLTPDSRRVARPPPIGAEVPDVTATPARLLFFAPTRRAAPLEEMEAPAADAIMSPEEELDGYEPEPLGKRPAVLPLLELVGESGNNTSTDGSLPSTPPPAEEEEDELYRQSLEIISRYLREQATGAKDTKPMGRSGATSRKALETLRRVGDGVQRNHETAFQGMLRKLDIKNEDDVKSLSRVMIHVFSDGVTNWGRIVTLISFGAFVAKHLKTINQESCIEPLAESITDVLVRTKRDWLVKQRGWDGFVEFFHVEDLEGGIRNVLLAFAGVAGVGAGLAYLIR
Chain of mCerulean3-BCL-2 (^CBCL-2) (human), P10415 (P10415 whole entry): as the sequence (P10415 whole entry) above

B1: Venus-NOXA (^VNOXA), Q13794 1-54 (natural protein)
chain: MPGKKARKNAQPSPARAPAELEVECATQLRRFGDKLNFRQKLLNLISKLFCSGT
B1 displayed a Kd in assay [1] of 8 µM.

B2: Venus-BIK, Q13323 1-160 (natural protein)
chain: MSEVRPLSRDILMETLLYEQLLEPPTMEVLGMTDSEEDLDPMEDFDSLECMEGSDALALRLACIGDEMDVSLRAPRLAQLSEVAMHSLGLAFIYDQTEDIRDVLRSFMDGFTTLKENIMRFWRSPNPGSWVSCEQVLLALLLLLALLLPLLSGGLHLLLK
As for B2, the dissociation constant Kd in assay [2] is 3 µM; in assay [3], 6 µM.

B3: Venus-BAD, Q92934 1-168 (natural protein)
chain: MFQIPEFEPSEQEDSSSAERGLGPSPAGDGPSGSGKHHRQAPGLLWDASHQQEQPTSSSHHGGAGAVEIRSRHSSYPAGTEDDEGMGEEPSPFRGRSRSAPPNLWAAQRYGRELRRMSDEFVDSFKKGLPRPKSAGTATQMRQSSSWTRVFQSWWDRNLGRGSSAPSQ
With B3, the dissociation constant Kd in assay [2] was determined as 4 µM; in assay [4] it was 7 µM.

Broadly, the Kd is the constant that tells how readily two partners part at equilibrium.
